Experimental data taken from patent US20230312710A1 (Hoffmann-La Roche, published 2023).

Key:
[1] = target: T1, monomeric human CD19 Fc(kih) fusion protein (human, UniProt P0DOX5 223-449 = IgG part); experiment: SPR ProteOn XPR36, Fab from bacterial supernatant captured by anti-human Fab, monomeric CD19-Fc as analyte
T1 construct: Heterodimeric Fc fusion with a single copy of the CD19 ectodomain; Part of the preparation was biotinylated at the Avi tag; the SPR text speaks of 'purified monomeric CD19-Fc' as analyte without saying whether it was biotinylated; also called monomeric CD19-Fc; human CD19-Fc fusion protein
Experimental: In order to further characterize the ELISA-positive clones, the off-rate was measured by surface plasmon resonance using a ProteOn XPR36 machine and compared with the parental humanized clone 8B8.
For this experiment, 7000 RU of polyclonal anti-human Fab antibody were immobilized on all 6 channels of a GLM chip by Amine coupling (NaAcetate pH4.5, 25 μl/min, 240 s) (vertical orientation). Each antibody-containing bacterial supernatant was filtered and 2-fold diluted with PBS, and then injected for 360 s at 25 μl/minute to achieve immobilization levels of between 100 and 400 response units (RU) in vertical orientation. Injection of monomeric CD19-Fc: For one-shot kinetics measurements, injection direction was changed to horizontal orientation, three-fold dilution series of purified monomeric CD19-Fc (varying concentration ranges between 150 and 6 nM) were injected simultaneously at 50 μl/min along separate channels 1-4, with association times of 180 s, and dissociation times of 300 s. […] Dissociation rate constants (koff) were calculated using a simple one-to-one Langmuir binding model in ProteOn Manager v3.1 software by simultaneously fitting the sensorgrams. […] Of note, the dissociation rate constants of clones 5A07 and 5B08 could not be determined due to inadequate fitting. […]

[2] = target: T2, human CD19 on WSU-DLCL2 cells (human, UniProt P15391 20-556); experiment: flow cytometry on CD19+ WSU-DLCL2 cells, PE anti-human IgG F(ab')2 detection
T2 construct: Endogenous CD19 of the B-cell non-Hodgkin lymphoma line WSU-DLCL2; also called CD19+ WSU-DLCL2; human CD19-expressing tumor cells
T2 sequence: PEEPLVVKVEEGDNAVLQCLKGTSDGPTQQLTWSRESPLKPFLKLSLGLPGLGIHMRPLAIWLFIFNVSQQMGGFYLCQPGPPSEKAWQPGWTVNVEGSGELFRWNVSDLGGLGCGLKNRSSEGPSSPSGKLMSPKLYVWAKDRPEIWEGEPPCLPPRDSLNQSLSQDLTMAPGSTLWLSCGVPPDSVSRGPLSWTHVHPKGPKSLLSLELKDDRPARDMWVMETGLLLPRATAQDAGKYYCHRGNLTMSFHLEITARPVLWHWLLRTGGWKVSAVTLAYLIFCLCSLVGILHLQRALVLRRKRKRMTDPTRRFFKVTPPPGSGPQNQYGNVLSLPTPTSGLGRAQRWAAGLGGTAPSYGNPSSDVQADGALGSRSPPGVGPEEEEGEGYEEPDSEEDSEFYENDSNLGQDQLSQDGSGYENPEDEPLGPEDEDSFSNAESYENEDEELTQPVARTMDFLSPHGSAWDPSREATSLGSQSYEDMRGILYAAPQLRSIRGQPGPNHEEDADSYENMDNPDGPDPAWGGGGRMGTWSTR
Experimental: 0.1×10⁶ tumor cells resuspended in DPBS (Gibco by Life Technologies, Cat. No. 14190 326) were added to each well of a round-bottom suspension cell 96-well plate (greiner bio-one, cellstar, Cat. No. 650185). Cells were washed once with 200 μL DPBS. Cells were resuspended in 100 μL/well of 4° C. cold DPBS buffer containing 1:5000 diluted Fixable Viability Dye eFluor 660 (eBioscience, Cat. No. 65-0864-18) and plates were incubated for 30 minutes at 4° C. Cells were washed once with 200 μL/well 4° C. cold DPBS buffer and resuspended in 50 μL/well of 4° C. cold FACS buffer (DPBS supplied with 2% FBS, 5 mM EDTA pH8 (Amresco, Cat. No. E177) and 7.5 mM Sodium azide (Sigma-Aldrich S2002)) containing the CD19 binders at a series of concentrations, followed by incubation for 1 hour at 4° C. After extensive washing, cells were further stained with 50 μL/well of 4° C. cold FACS buffer containing 5 μg/mL PE-conjugated AffiniPure anti-human IgG F(ab′)2-fragment-specific goat F(ab′)2 fragment (Jackson ImmunoResearch, Cat. No. 109 116 098) for 30 minutes at 4° C. Cells were then washed twice with 200 μL/well 4° C. FACS buffer and cells were fixed in 50 μL/well DPBS containing 1% Formaldehyde (Sigma, HT501320-9.5L). Cells were resuspended in 100 μL/well FACS-buffer and acquired using the FACS LSR II (BD Biosciences). Data was analyzed using FlowJo V10 (FlowJo, LLC) and GraphPad Prism 6.04 (GraphPad Software, Inc).

[3] = target: T1, monomeric human CD19 Fc(kih) fusion …; experiment: SPR ProteOn XPR36, 25 C, IgG from HEK supernatant captured by anti-human Fab, monomeric CD19-Fc as analyte
Experimental: The Affinity (KD) of the parental antibody 8B8 as well as it derivatives was measured by SPR using a ProteOn XPR36 instrument (Biorad) at 25° C. 7000 RU of polyclonal anti-human Fab antibody were immobilized on all 6 channels of a GLM chip by Amine coupling (NaAcetate pH4.5, 25 ul/min, 240 s) (vertical orientation). Each antibody-containing HEK supernatant was filtered, diluted with PBST (10 mM phosphate, 150 mM sodium chloride pH 7.4, 0.005% Tween 20) to a concentration of 10 ug/ml, and then injected at a for 360 s at 25 μl/minute to achieve immobilization levels between 500 and 800 response units (RU) in vertical orientation. Injection of monomeric CD19-Fc: For one-shot kinetics measurements, injection direction was changed to horizontal orientation, three-fold dilution series of purified monomeric CD19-Fc (varying concentration ranges between 150 and 6 nM) were injected simultaneously at 50 μl/min along separate channels 1-4, with association times of 180 s, and dissociation times of 300 s. A human IgG Fc fragment (150 nM) was injected in channel 5 as a negative control for specific binding to monomeric CD19-Fc. Buffer (PB ST) was injected along the sixth channel to provide an “in-line” blank for referencing. Regeneration was performed by two pulses of 10 mM glycine pH 1.5 and 50 mM NaOH for 30 s at 90 ul/min (vertical orientation). Association rate constants (kₒₙ) and dissociation rate constants (koff) were calculated using a simple one-to-one Langmuir binding model in ProteOn Manager v3.1 software by simultaneously fitting the association and dissociation sensorgrams. The equilibrium dissociation constant (KD) was calculated as the ratio koff/kₒₙ. The dissociation constant of all affinity-matured clones was improved compared to their parental clone 8B8.

B1: parental humanized anti-CD19 clone 8B8, Fab in bacterial supernatant (Fab, V domains shown)
VH: QVQLVQSGAEVKKPGASVKVSCKASGYTFTDYIMHWVRQAPGQGLEWMGYINPYNDGSKYTEKFQGRVTMTSDTSISTAYMELSRLRSDDTAVYYCARGTYYYGSALFDYWGQGTTVTVSS
VL: DIVMTQTPLSLSVTPGQPASISCKSSQSLENSNGNTYLNWYLQKPGQSPQLLIYRVSKRFSGVPDRFSGSGSGTDFTLKISRVEAEDVGVYYCLQLTHVPYTFGQGTKLEIK
notes: Soluble Fab expressed from the phagemid in bacterial supernatant (Flag-tagged); also called Parental 8B8; CD19 (8B8)
koff [1]: 0.000301 s⁻¹

B2: anti-CD19 clone 5B08 in P329GLALA human IgG1 format (antibody, V domains shown)
VH: QVQLVQSGAEVKKPGASVKVSCKASGYTFTDYIMHWVRQAPGQGLEWMGYINPYNDGSKYTEKFQGRVTMTSDTSISTAYMELSRLRSDDTAVYYCARGTYYYGPQLFDYWGQGTTVTVSS
VL: DIVMTQTPLSLSVTPGQPASISCKSSQSLETSTGNTYLNWYLQKPGQSPQLLIYRVSKRFSGVPDRFSGSGSGTDFTLKISRVEAEDVGVYYCLQLDSYPNTFGQGTKLEIKR
notes: also called CD19 (8B8-5B08)
EC50 [2]: 0.014 nM

B3: anti-CD19 clone 8B8 in P329GLALA human IgG1 format (antibody, V domains shown)
VH: QVQLVQSGAEVKKPGASVKVSCKASGYTFTDYIMHWVRQAPGQGLEWMGYINPYNDGSKYTEKFQGRVTMTSDTSISTAYMELSRLRSDDTAVYYCARGTYYYGSALFDYWGQGTTVTVSS
VL: DIVMTQTPLSLSVTPGQPASISCKSSQSLENSNGNTYLNWYLQKPGQSPQLLIYRVSKRFSGVPDRFSGSGSGTDFTLKISRVEAEDVGVYYCLQLTHVPYTFGQGTKLEIKR
notes: also called Parental 8B8; parental antibody 8B8
Kd [3]: 2.36 nM
koff [3]: 0.000134 s⁻¹
kon [3]: 56600 M⁻¹ s⁻¹

B4: anti-CD19 clone 7H07 in P329GLALA human IgG1 format (antibody, V domains shown)
VH: QVQLVQSGAEVKKPGASVKVSCKASGYTFTDYIMHWVRQAPGQGLEWMGYINPYNDGSKYTEKFQGRVTMTSDTSISTAYMELSRLRSDDTAVYYCARGTYYYGSELFDYWGQGTTVTVSS
VL: DIVMTQTPLSLSVTPGQPASISCKSSQSLETSTGNTYLNWYLQKPGQSPQLLIYRVSKRFSGVPDRFSGSGSGTDFTLKISRVEAEDVGVYYCLQATHIPYTFGQGTKLEIKR
notes: also called CD19 (8B8-7H07)
EC50 [2]: 0.034 nM

B5: anti-CD19 clone 2B03 in P329GLALA human IgG1 format (antibody, V domains shown)
VH: QVQLVQSGAEVKKPGASVKVSCKASGYTFTDYITHWVRQAPGQGLEWMGYINPYNDGSKYTEKFQGRVTMTSDTSISTAYMELSRLRSDDTAVYYCARGTYYYGPDLFDYWGQGTTVTVSS
VL: DIVMTQTPLSLSVTPGQPASISCKSSQSLETSTGNTYLNWYLQKPGQSPQLLIYRVSKRFSGVPDRFSGSGSGTDFTLKISRVEAEDVGVYYCLQLTHVPYTFGQGTKLEIKR
notes: also called CD19 (8B8-2B03)
EC50 [2]: 0.041 nM

B6: anti-CD19 clone 5H09 in P329GLALA human IgG1 format (antibody, V domains shown)
VH: QVQLVQSGAEVKKPGASVKVSCKASGYTFTDYIMHWVRQAPGQGLEWMGYINPYNDGSKYTEKFQGRVTMTSDTSISTAYMELSRLRSDDTAVYYCARGTYYYGSALFDYWGQGTTVTVSS
VL: DIVMTQTPLSLSVTPGQPASISCKSSQSLESSTGNTYLNWYLQKPGQSPQLLIYRVSKRFSGVPDRFSGSGSGTDFTLKISRVEAEDVGVYYCLQLIDYPVTFGQGTKLEIKR
notes: also called CD19 (8B8-5H09)
EC50 [2]: 0.02 nM

B7: anti-CD19 clone 2B11 in P329GLALA human IgG1 format (antibody, V domains shown)
VH: QVQLVQSGAEVKKPGASVKVSCKASGYTFTDYIMHWVRQAPGQGLEWMGYINPYNDGSKYTEKFQGRVTMTSDTSISTAYMELSRLRSDDTAVYYCARGTYYYGPQLFDYWGQGTTVTVSS
VL: DIVMTQTPLSLSVTPGQPASISCKSSQSLETSTGTTYLNWYLQKPGQSPQLLIYRVSKRFSGVPDRFSGSGSGTDFTLKISRVEAEDVGVYYCLQLLEDPYTFGQGTKLEIKR
notes: also called CD19 (8B8-2B11)
EC50 [2]: 0.034 nM
